Entries after “also recorded” stand apart in the source; their conditions may differ.
Columns and labels:
3+/Ecad− population = conditions: cited from earlier work
[1] = test system: SMAD1/5/8 in MOVCAR-8 cells; test: Western blot with phospho-Smad1/5/8 antibody; format: cell-based, mouse; conditions: MOVCAR-8, 20 ug/ml MIS for 15 min, 2, 4 and 6 h
Experimental: (§1) FIGS. 5A-5B show MISRII is expressed in ovarian cancer cell lines and SMAD 1/5/8 is phosphorylated after treatment with purified MIS. FIG. 5A show expression of MIS type II receptor in human ovarian cancer cell lines OVCAR-5, IGROV-1 and SKOV-3, and in mouse ovarian cancer cell line MOVCAR-8 were analyzed by immunoprecipitation and cross immunoblotting (IB) of lysates with anti-MISRII (Left) Immunoblotting was also performed to detect MISRII expression in separated 3+, 3−, 3+/Ecad−, 3−Ecad+ of OVCAR-5 xenograft tumors (Right). COS cells transfected with a MISRII vector or a pcDNA empty vector served as positive or negative controls (Right). […] MOVCAR-8 (Left) or OVCAR-5 (Right) cells were treated with 20 ug/ml (Left) or 100 ug/ml (Right) MIS for 15 min, 2, 4 and 6 h, and protein was analyzed by Western blot using a phospho-Smad1/5/8 antibody.
(§2) Lysates were harvested in lysis buffer (Cell Signaling; catalog no. 9803) for 15 min from 80% subconfluent cells or from ascite cells after lysing red cells. Proteins were fractionated on SDS-polyacrylamide gels and transferred to a membrane. […] Blots were washed (three times) with TBST the following day for 30 min and incubated with the appropriate peroxidase-conjugated second antibodies for 1 h, and bound antibodies were detected with enhanced chemiluminescence (PerkinElmer Life Sciences).

OVCAR-5 cells = test: Cell cycle analysis by flow cytometry; format: cell-based, human; conditions: 100 μg/mL (714 nM) MIS or 60 nM doxorubicin, 48 h
Experimental: OVCAR-5 was grown to 50-60% confluency in DMEM with 10% FCS, untreated or treated with 100 μg/mL (714 nM) MIS or 60 nM doxorubicin for 48 h, harvested, and incubated with 10 μg/mL Hoechst 33342 at 37° C. for 30 min or 40 μg/mL propidium iodide (Sigma) at 25° C. for 30 min. Cells were stained with anti-human CD24-PE, anti-mouse/human CD44-APC/Cy7, anti-human Epcam-APC, and anti-human Ecadherin-FITC for 20 min at 4° C. and fixed in paraformaldehyde (1%), and the cell cycle was analyzed using the SORP LSRII.

[2] = test system: SMAD1/5/8 in OVCAR-5 cells; test: Western blot with phospho-Smad1/5/8 antibody; format: cell-based, human; conditions: OVCAR-5, 100 ug/ml MIS for 15 min, 2, 4 and 6 h
Experimental: as §1, §2

[3] = test system: ovarian cancer cells marked by CD44, CD24, and Epcam (3+); conditions: cited from earlier work
OVCAR-8 cells = conditions: cited from earlier work
[4] = test system: MOVCAR-7 and MOVCAR-8 cell lines; test: qPCR of CDK inhibitor mRNAs relative to GAPDH; format: cell-based, mouse
Experimental: Total microRNA (miRNAs) were extracted from the different cell lines HOSE-4, HOSE-6, OVCAR-5, OVCAR-3, OVCAR-8, IGROV-1, and SKOV-3 using the miRNeasy Mini kit (QIAGEN) and reverse-transcribed to cDNAs using the TaqMan MicroRNA Reverse Transcription Kit (Applied Biosystems). Levels of Let-7c miRNAs were measured by quantitative PCR using TagMan Let-7 probes (Applied Biosystems; part no. 4373167) with U47 RNA as internal standard for normalization. Total mRNAs were also extracted from separated and unseparated OVCAR-5, MOVCAR-7, and MOVCAR-8 cell lines using an RNeasy Mini kit (QIAGEN) and reverse-transcribed to cDNAs using the SuperScript III Reverse Transcription Kit (Invitrogen). Levels of Lin28 and cyclin-dependent kinase (CDK) inhibitor mRNAs were measured by quantitative PCR with GAPDH as an internal standard using the following primers: […]
LIN28 F ([…])(SEQ ID NO: 34) and R ([…])(SEQ ID NO: 35); p15 F ([…])(SEQ ID NO: 36) and R ([…])(SEQ ID NO: 37); p16 F ([…])(SEQ ID NO: 38) and R ([…])(SEQ ID NO: 39); p18 F ([…])(SEQ ID NO: 40) and R ([…])(SEQ ID NO: 41); p19F ([…])(SEQ ID NO: 42) and R ([…])(SEQ ID NO: 43); p21 F ([…])(SEQ ID NO: 44) and R ([…])(SEQ ID NO: 45); p27 F ([…])(SEQ ID NO: 46) and R ([…])(SEQ ID NO: 47); CDK2 F ([…])(SEQ ID NO: 48) and R ([…])(SEQ ID NO: 49); CDK4 F ([…])(SEQ ID NO: 50) and R([…])(SEQ ID NO: 51); CDK6 F ([…])(SEQ ID NO: 52) and R ([…])(SEQ ID NO: 53); and GAPDH F ([…])(SEQ ID NO: 54) and R ([…])(SEQ ID NO: 55). Relative fold changes of Let-7c miRNAs and Lin28 and CDK inhibitor mRNAs were calculated as ΔCt or ΔΔCt (1) (n=3 for each primer).

[5] = test system: epithelial ovarian cancers; conditions: cited from earlier work
[6] = test system: Lin28 in OVCAR-5 cells or primary ascites; test: Effect of exogenously administered MIS on Lin28 expression; format: cell-based, human; conditions: separated or unseparated OVCAR-5 cells or primary ascites; data not shown
[7] = in vivo; cited from earlier work
3+/Ecad− OVCAR-5 cells = test: Colony formation assay of FACS-separated cells; format: cell-based, human; conditions: OVCAR-5 3+/Ecad− cells, 2000 cells in six-well plates; MIS 30 ug/ml or Doxorubicin 30 nM vs media, 14 days
Experimental: Colony formation was performed as previously described (4; wei 2010). 3+/Ecad− or 3−/Ecad+ cells separated from the ovarian cancer cell lines were treated with MIS or doxorubicin, cisplatin, or taxol, then plated on 6-well plates containing 2 ml/well complete DMEM medium at 500, 1000, or 2000 cells/well, and incubated for 14 days at 37° C., with a media change at day 7. Cells separated from primary ascites were plated on 12-well plates coated by metrigel or by agarose for colony formation assays at 25,000, 50,000, or 100,000 cells/well. Cells were seeded on 1:2 metrigel or in 0.4% agarose over a 0.8% layer, and incubated for 3-4 weeks at 37° C. At day 14 (cell lines) or day 21 (ascites), plates were washed with 1×PBS, and cells fixed with methanol. Resulting colonies were stained with Giemsa and the stained area captured and analyzed using Image J (Rasband, NIH, USA, http://rsb.info.nih.gov/ij/). Large colonies greater than 4 mm at 10× magnification were also counted and compared.

[8] = listed as human recombinant MIS

B1: MIS: 140 kDa glycoprotein disulfide linked homodimer secreted by fetal testes; produced recombinantly and immunoaffinity purified (protein, listed as Homo sapiens)
chain: MRDLPLTSLALVLSALGALLGTEALRAEEPAVGTSGLIFREDLDWPPGSPQEPLCLVALGGDSNGSSSPLRVVGALSAYEQAFLGAVQRARWGPRDLATFGVCNTGDRQAALPSLRRLGAWLRDPGGQRLVVLHLEEVTWEPTPSLRFQEPPPGGAGPPELALLVLYPGPGPEVTVTRAGLPGAQSLCPSRDTRYLVLAVDRPAGAWRGSGLALTLQPRGEDSRLSTARLQALLFGDDHRCFTRMTPALLLLPRSEPAPLPAHGQLDTVPFPPPRPSAELEESPPSADPFLETLTRLVRALRVPPARASAPRLALDPDALAGFPQGLVNLSDPAALERLLDGEEPLLLLLRPTAATTGDPAPLHDPTSAPWATALARRVAAELQAAAAELRSLPGLPPATAPLLARLLALCPGGPGGLGDPLRALLLLKALQGLRVEWRGRDPRGPGRAQRSAGATAADGPCALRELSVDLRAERSVLIPETYQANNCQGVCGWPQSDRNPRYGNHVVLLLKMQARGAALARPPCCVPTAYAGKLLISLSEERISAHHVPNMVATECGCR
modifications: homodimer
3+/Ecad− population
  response of 3+/Ecad− population: responded well
[1]
  SMAD1/5/8 phosphorylation: significantly increased
[1]; [8]
  SMAD1/5/8 phosphorylation: activates SMAD1/5/8 signaling
OVCAR-5 cells
  G1 distribution of 3+/Ecad+ population: neither MIS nor doxorubicin affected
  percentage of 3+/Ecad− cells in G1: inducing G1 arrest; also recorded: significantly increased; also recorded: G1 accumulation; also recorded: induces G1 cell cycle arrest
[2]
  SMAD1/5/8 phosphorylation: significantly increased
[2]; [8]
  SMAD1/5/8 phosphorylation: activates SMAD1/5/8 signaling
[3]
  inhibition of 3+ enriched population: significantly inhibited
OVCAR-8 cells
  P16 protein level: upregulated
[4]; MOVCAR-7 and -8, 50 μg/mL MIS or 60 nM doxorubicin vs vehicle, 4 h
  p15 expression: specifically increased; also recorded: significant and opposite responses
[4]; MOVCAR-7 or -8, 50 μg/mL MIS or 60 nM doxorubicin, 4 h
  other CDK inhibitors mRNA levels (p18, p19, p21, p27): did not regulate significantly
[4]; MOVCAR-8, 50 μg/mL MIS vs vehicle, 4 h
  p16 expression: specifically increased
[4]; transgenic cell lines treated with MIS or doxorubicin, data not shown
  kinases tested (CDK2, CDK4, CDK6): unaffected
[5]
  combination with commonly used cancer drugs to control tumor growth: synergistically or additively
[5]; in vitro and in vivo
  growth of epithelial ovarian cancers: inhibits their growth
[6]
  effect on Lin28 expression: no direct effect
[7]
  toxicity after prolonged therapy: without obvious toxicity
3+/Ecad− OVCAR-5 cells
  colony formation of 3+/Ecad− cells: decreased colony formation; also recorded: decreases significantly; also recorded: significantly inhibited colony growth; also recorded: significant reduction in absolute colony number and cell number; also recorded: significant reduction in absolute colony numbers; also recorded: inhibited colony formation
